For assay [1], the target named is T1, HLA-A*0201/β2-microglobulin/NY-ESO peptide complex (human, biotinylated with E. coli biotin ligase at the added recognition sequence (biotinylated form used in the ELISA)).
T1 construct: also called HLA/NY-ESO; HLA-A2/NY-ESO
The assay can be described thus: SPR (Biacore T200), scFv captured by anti-His antibody, HLA/NY-ESO as analyte, single cycle kinetics. Background: In SPR one partner is held on a chip, and binding of the other changes the refractive index at the surface.
Protocol: With the use of Biacore T200, anti-HLA/NY-ESO scFv was captured as a ligand by the immobilized anti-His antibody, and the antigen was assayed as an analyte. As the antigen, HLA/NY-ESO prepared in 1)-1 was used. The anti-His antibody (His Capture kit, GE Healthcare) was immobilized on Sensor Chip CM5 (GE Healthcare) in accordance with the instructions of the kit. The anti-HLA/NY-ESO scFv constructs diluted to 0.5 μg/ml in HBS-EP+ (GE Healthcare) to be evaluated were brought into contact therewith at 10 μl/min for 60 seconds for immobilization. Thereafter, the samples were added to the HLA/NY-ESO analytes diluted to various levels with HBS-EP+ at a flow rate of 30 μl/min for 120 seconds and dissociation was assayed for 600 seconds.

Assay [2] deals with T2, HLA-A2/NY-ESO peptide complex presented on cells (human).
T2 construct: whole, on cells; also called HLA/NY-ESO; T2 cells supplemented with the NY-ESO peptide
The assay can be described thus: flow cytometry on peptide-pulsed T2 cells, scFv 100 nM. (Flow cytometry measures light scatter and fluorescence of single cells or particles in a stream.)

In assay [3] the target is T3, gp100 (human).
T3 construct: cell surface;cell surface complex; also called HLA-A2 / gp100 peptide complex on T2 cells
The assay is described as above.

Assay [4] concerns the target T4, HLA-A2 / homologous peptide DOLPP1 complex on T2 cells (human).
T4 construct: whole, on cells; also called T2 cells supplemented with homologous peptide DOLPP1
The assay is described as above.
Protocol: (§1) The cells were washed 2 times in PBS containing 5% FBS, immobilized with Mildform 10 N (FUJIFILM Wako Pure Chemical Corporation) overnight, and resuspended in PBS containing 5% FBS. The cell suspensions were subjected to detection using a flow cytometer (CantoII, Becton Dickinson). […] The standardized gMFI indicating the binding affinity of each scFv standardized with the amount of the HLA/peptide complex on the T2 cells was determined in accordance with the following equation.
(§2) The 9-mer peptide shown in FIG. 2A was selected as a homologous peptide for evaluation of binding specificity of anti-HLA/NY-ESO scFv. […] The standardized gMFI indicating the binding affinity of each scFv standardized with the amount of the HLA/peptide complex on the T2 cells was determined in accordance with the following equation.

Assay [5] deals with T2, HLA-A2/NY-ESO peptide complex presented …. The assay is described as above. The source holds these as a separate data set.
Protocol: as §1, §2
The target in assay [6] is T5, HLA-A2 / homologous peptide PRKD2 complex on T2 cells (human).
T5 construct: whole, on cells; also called T2 cells supplemented with homologous peptide PRKD2
The assay is described as above.
Protocol: as §1, §2

In assay [7] the target is T3, gp100. The assay is described as above. The source holds these as a separate data set.
Protocol: as §1, §2
Assay [8] addresses T6, HLA-A2 / homologous peptide P2RY8 complex on T2 cells (human).
T6 construct: whole, on cells; also called T2 cells supplemented with homologous peptide P2RY8
Described as above.
Protocol: as §1, §2

The target of assay [9] is T7, HLA-A2 / homologous peptide IL20RB complex on T2 cells (human).
T7 construct: whole, on cells; also called T2 cells supplemented with homologous peptide IL20RB
Described as above.
Protocol: as §1, §2

Assay [10] has as its target T8, HLA-A2 / homologous peptide CD163 complex on T2 cells (human).
T8 construct: whole, on cells; also called T2 cells supplemented with homologous peptide CD163
Described as above.
Protocol: as §1, §2

Assay [11] concerns the target T4, HLA-A2 / homologous peptide DOLPP1 …. Description: flow cytometry, peptide-pulsed T2 cells.
Assay [12] addresses T5, HLA-A2 / homologous peptide PRKD2 …. The assay can be described thus: flow cytometry, peptide-pulsed T2 cells.
Assay [13] addresses T6, HLA-A2 / homologous peptide P2RY8 …. Description: flow cytometry, peptide-pulsed T2 cells.
For assay [14], the target named is T7, HLA-A2 / homologous peptide IL20RB …. The assay can be described thus: flow cytometry, peptide-pulsed T2 cells.
In assay [15] the target is T8, HLA-A2 / homologous peptide CD163 …. Description: flow cytometry, peptide-pulsed T2 cells.

Like-named read-outs stand apart in the source and are kept apart here.

B1: NYC-0003 (scFv, not shown: small tags and cut ends)
scFv: EVQLLESGGGLVQPGGSLRLSCAASGFTFSTYQMSWVRQAPGKGLEWVSGIVSSGGSTAYADSVKGRFTISRDNSKNTLYLQMNSLRAEDTAVYYCAGELLPYYGMDVWGQGTTVTVSSGGGGSGGGGSGGGGSQSELTQPRSVSGSPGQSVTISCTGTSRDVGGYNYVSWYQQHPGKAPKLIIHDVIERSSGVPDRFSGSKSGNTASLTISGLQAEDEADYYCWSFAGSYYVFGTGTDVTVL
notes: also called 3M4E5 scFv; NYC-0003 tag adduct
In general, Kd refers to the free concentration of one partner at which half of the binding sites on the other are occupied at equilibrium, for simple one-to-one binding. Turning to B1, the affinity in assay [1], expressed as Kd, was 8.1 nM. Besides, the “standardized gMFI” value in assay [2] came out at 3.74; in assay [3], 0.39; in [4], 0.38; in assay [5], 5.22; in assay [6] it was 1.53; in [7] it was 0.32. Further, the entries for the “standardized gMFI” value in assay [8], in assay [9] and in [10] were 2.01, 0.43 and 1.08, respectively.

B2: NYC-0004 (scFv, not shown: small tags and cut ends)
scFv: EVQLLESGGGLVQPGGSLRLSCAASGFTFSTYQMSWVRQAPGKGLEWVSGIVSSGGSTAYADSVKGRFTISRDNSKNTLYLQMNSLRAEDTAVYYCAGELLPYYGMDVWGQGTTVTVSSGGGGSGGGGSGGGGSQSELTQPRSVSGSPGQSVTISCTGTERDVGGYNYVSWYQQHPGKAPKLIIHDVIERSSGVPDRFSGSKSGNTASLTISGLQAEDEADYYCWSFAGGYYVFGTGTDVTVL
notes: also called T1 scFv; NYC-0004 tag adduct
For the molecule B2, in [1], binding was characterised by a dissociation constant (Kd) of 2.8 nM. For the same molecule, the “standardized gMFI” value in [2] stood at 6.02; in [3], 0.37; in assay [4], 0.39; in [5], 9.19; in assay [6], 3.41; in assay [7] it was 0.32. The “standardized gMFI” value in [8] turned out to be 1.98; in assay [9] it was 0.43; in [10], 0.49.

B3: NYA-0001 (scFv)
scFv: GEVQLVESGGGVVQPGRSLTPSCSASGFSIRSYDIHWVRQAPGKGLEWVATISYDGSQKYFADSVKGRFTIFRDESENMVYLQMSGLRVEDTAVYHCARGSSGHYEAFDIWGQGTMVTVSSGGGGSGGGGSGGGGSQSVLTQPPSVSAAPGQKVTISCSGSSSNIGNNYVSWYQQLPGTAPKLLIYDNNKRPSGIPDRFSGSKSGTSATLGITGLQTGDEADYYCGTWDSSLSAPWVFGGGTKVTVLGAAAGAGGDYKDDDDKGAAAHHHHHH
notes: also called NYA-0001 tag adduct; NY-R119 expressed in a cultured mammalian cell
In assay [1], B3 registered a Kd of 33.8 nM. Further, the “standardized gMFI” value in [2] was 5.75; in assay [3] it was 0.43; in [4] it was 0.37; in assay [5], 5.12; in assay [6], 0.33; in [7], 0.31. The “standardized gMFI” value in assay [8] stood at 0.73; in [9], 0.42; in assay [10], 0.48. The binding result in assay [11], in [12], in [13], in assay [14] and in assay [15] was “no binding (tested: 100 nM)” in each case.

B4: NYA-1143 (scFv)
scFv: GEVQLVESGGGVVQPGRSLTPSCSASGFSIRSYDIHWVRLAPGKGLEWVATISYDGSQKYFADSVKGRFTIFRDESENMVYLQMSGLRVEDTAVYHCARGSSGHYEAFDIWGQGTMVTVSSGGGGSGGGGSGGGGSQSVLTQPPSVSAAPGQKVTISCSGSSSNIGNWYVSWYQQLPGTAPKLLIYDNNKRPSGIPDRFSGSKSGTSATLGITGLQTGDEADYYCGTWDSSLSAPWVFGGGTKVTVLGAAAGAGGDYKDDDDKGAAAHHHHHH
With B4, in assay [1], the affinity, expressed as Kd, was 1 nM. Also, the “standardized gMFI” value turned out to be 12.9 in assay [2]; 0.41 in assay [3]; 0.37 in assay [4]; 13.4 in assay [5]; 0.32 in [6]; 0.3 in [7]. Moreover, the “standardized gMFI” value came out at 0.69 in assay [8], 0.42 in [9] and 0.46 in [10]. For the same molecule, the binding result in [11], in assay [12], in assay [13], in [14] and in assay [15] was “no binding (tested: 100 nM)” in each case.

B5: NYA-2023 (scFv)
scFv: GEVQLVESGGGVVQPGRSLTPSCSASGFSIRSYDIHWVRQAPGKGLEWVATISYDGSQKYFADSVKGRFTIFRDESENMVYLQMSGLRVEDTAVYHCARGSSGHYEAFDIWGQGTMVTVSSGGGGSGGGGSGGGGSQSVLTQPPSVSAAPGQKVTISCSGSSSNIGNWYVSWYQQLPGTAPKLLIYDNNKRPSGIPDRFSGSKSGTSATLGITGLQTGDEADYYCGTWDSSLSAPWVFGGGTKVTVLGAAAGAGGDYKDDDDKGAAAHHHHHH
As for B5, the Kd in [1] is 2.4 nM. Besides, the “standardized gMFI” value in assay [2] came out at 8.85; in [3] it was 0.4; in assay [4] it was 0.42; in assay [5] it was 10.1; in assay [6], 0.42; in assay [7] it was 0.3. Besides, the “standardized gMFI” value in [8] amounted to 0.7; in assay [9], 0.42; in assay [10], 0.48. The binding result in [11], in assay [12], in [13], in assay [14] and in assay [15] was “no binding (tested: 100 nM)” each time.

B6: NYA-1163 (scFv)
scFv: GEVQLVESGGGVVQPGRSLTPSCSASGFSIRSYDIHWVRLAPGKGLEWVATISYDGSQKYFADSVKGRFTIFRDESENMVYLQMSGLRVEDTAVYHCARGSSGHYEAFDIWGQGTMVTVSSGGGGSGGGGSGGGGSQSVLTQPPSVSAAPGQKVTISCSGSSSNIGNNYVSWYQQLPGTAPKLLIYDNNKRPSGIPDRFSGSKSGTSATLGITGLQTGDEADYYCGTWDSSLSAPWVFGGGTKVTVLGAAAGAGGDYKDDDDKGAAAHHHHHH
In turn, B6 returned a Kd in assay [1] of 13 nM. The “standardized gMFI” value in assay [2] is 3.67; in assay [3] it was 0.44; in assay [4], 0.36; in [5] it was 4.21; in assay [6], 0.31; in [7], 0.3. Further, the “standardized gMFI” value in assay [8] came out at 0.69; in assay [9], 0.41; in [10] it was 0.46. Also, the binding result in assay [11], in [12], in [13], in [14] and in assay [15] was “no binding (tested: 100 nM)” in each case.

B7: NYA-1154 (scFv)
scFv: GEVQLVESGGGVVQPGRSLTPSCSASGFSIRSYDMHWVRQAPGKGLEWVATISYDGSQKYFADSVKGRFTIFRDESENMVYLQMSGLRVEDTAVYHCARGSSNHYEAFDIWGQGTMVTVSSGGGGSGGGGSGGGGSQSVLTQPPSVSAAPGQKVTISCSGSSSNIGNNYVSWYQRLPGTAPKLLIYDNNKRPSGIPDRFSGSKSGTSATLGITGLQTGDEADYYCGAWDSSLSAPWVFGGGTKVTVLGAAAGAGGDYKDDDDKGAAAHHHHHH
Turning to B7, the “standardized gMFI” value in assay [2] turned out to be 9.98; in assay [3], 0.46; in assay [4], 0.46; in assay [5], 13.8; in assay [6], 2.72; in assay [7] it was 0.31. Further, the figures for the “standardized gMFI” value in [8], in assay [9] and in [10] were 0.65, 0.51 and 0.54, respectively. The binding result in assay [4], in assay [8], in [9] and in assay [10] was “no binding (tested: 100 nM)” each time.

For the origin of these results see patent US20230348616A1 (MIE UNIVERSITY, published 2023).
